Where two headings read alike, the source gives them in different places.
Tested on: TAL-PrA (GAL1 promoter TAL)
Details: ChIP-qPCR

Row | Substance | binding signal [fold vs ACT1] | other results
1 | TTATACATTAATCAGCGA (double strand) [ENB1 similar site (ChrXV)] |  | binding signal (GAL1 at least 4.6-fold better): 1.34 fold vs ACT1
2 | GAL1 promoter TAL target (ChrII 278829-278846) |  | binding signal (not enriched in glucose): 6.14 fold vs ACT1
3 | GGGGTAATTAATGTAAAT (double strand) [IDP3 similar site (ChrXIV)] | 0.94 | 
4 | GGGGTAATTAATCATTTT (double strand) [SCC2 similar site (ChrIV)] | 0.65 | 
5 | AAATTAATCAGCGGTGAC (double strand) [REV7 similar site (ChrIX)] | 0.77 | 
6 | GGGGTAATTAAAATTTCT (double strand) [IQG1 similar site (ChrXVI)] | 0.76 | 

From patent publication US20150338398
